Assay: yeast display, Sf9 membrane polyspecificity reagent, FACS + sequencing; frameworks hold sequencing errors
In short: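 Synthetic nanobody libraries on Saccharomyces cerevisiae BJ5465 were galactose-induced for 36–48 hours, stained 1 hour at 4 °C with 10% biotinylated, detergent-solubilized Sf9 membrane reagent and enriched on streptavidin microbeads. FACS then separated cells into low and high (top ~1%) gates by anti-HA (expression) and streptavidin (reagent binding) fluorescence. Genes were colony-PCR amplified, MiSeq 2 × 250 sequenced and CDR-length filtered. A clone's polyreactivity label is that of its gate of origin.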

Row | Sequence | polyreactivity (PSR sort gate)
1 | QVQLVESGGGLVQAGGSLRLSCAASGSTFKPYTMGWYRQAPGKERELVAGISSVDSTYYADSVKGRFTISRDNAKNTVYLQMNSLKPEDTAVYYCNKRKWPTFTYAMNYWGQGTQVTVSS | low polyreactivity
2 | QVQLVESGGGLVQAGGSLRLSCAASGGTFYRYAMGWYRQAPGKERELVAAITSGSSTYYADSVKGRFTISRDNAKNTVYLQMNSLKPEDTAVYYCAAARYSRLSRTRPGKYGYWGQGTQVTVSS | low polyreactivity
3 | QVQLVESGGGLVHAGGSLRLSCDASGFTFAGYSMGWYRQAPGKERELVAGIRSSGARTYYADSVKGRFTISRDNAKTTVYLQKNILKPEHTAVYYCAKTDGFYSGYGYWGQGTQVTVSS | low polyreactivity
4 | QVQLVESGGGLVQAGGSLRLTCAASGLILDGYAMGWYRQAPGKERELVAAITRSGGRTYYADSVKGRFTISRDNAKNTVYLQMNSLKPEDTAVDYCAADTYRYHLIATDDYWGQGTQVTVSS | high polyreactivity
5 | QVQLVESGGGLVQAGGSLRLSCAASGSISDTYGLGWYRQAPGKERELVASITWSSGSTDYADSVKGRFTISRDNAKNTVYLQMNSLKPEDTAVYYCATYEPFYSFFFRGIYDYWGQGTQVTVSS | low polyreactivity
6 | QVQLVESGGGLVQAGGSLRLSCAASGSIVDNRGWYRQAPGKERELVAAISSSGDSTYYADSVKGRFTISRDNAKNTVYLQMNSLKPEDTAVYYCAADFYYYKKQYDYWGQGTQVTVSS | low polyreactivity
7 | QVQLVESGGGLVHAGGSLRLSCAASGFTFRSYTMGWYRQAHGKERELVAAITSRGTSTYYADSVKGRFTISRDNAKNTVYLQMNSLKPEDTAVYYCAAPIYNGYASWQVYYWGQGTQVTVSS | high polyreactivity
8 | QVQLVESGGGLVQAGGSLRLTCAASGLIFFTPYALGWYRQAPGTESELVAVITWRGASTYYADSVKGRFTISRDNAKHTVYFQMNSLKPEDTAVYYCAAKLCSVWKESYDSWGQGTQVTVSS | low polyreactivity
9 | QVQLVESGGGLDQAGGSLRLSWAASGSTFTINVMGWYRQAPGKERELVAAINGGGRTNYADSVKGRFTISRDNAKNTVYLQMNSLKPEDTAVYYCAADGLSNVRQMDFWGQGTQVTVSS | low polyreactivity
10 | QVQLVESGGGLVQAGGSLRLSCASSGGTLFQNAMGWYRQAPGKESELVATIRVSGGITYYADSVKGRFTISRDNAKNTVYFQMNSLNPEDTAVYYCAKDSADSRAVGDVMTFDYWGQGTQVTVSS | low polyreactivity
11 | QVQLVESGGGLVQAGGSLRLSCAASGSTFGSNAMGWYRPAPGKERELVAAITYSGGRTYYADSVKGRFTISRDNAKNTVYLQMNSLKPEDTAVYYCAATFGFFYYQYDYWGQGTQVTVSS | low polyreactivity
12 | QVHLVESGGGLVQAGGSLRLSCSASGRIFRVYAMGWYRQPPGKERELVAAIDQRGGRTYYADSVKGRFTISRDNAKNTVYLQMNSLKPEDTAVYYCNAEYYVSSLVESEYWGQGSQVTVSS | low polyreactivity
13 | QVQLVESGGGLVQAGGSLRLSCAASGYTIIVNAMGWYRQAPGKERELVAAISWSSVSTYYADSVKGRFTISRDNAKNTVYLQMNSLKPEDTAVYYCAAEGYDYSQWFDYWGQGTQVTVSS | high polyreactivity
14 | QVQLQESGGGLVQARGSLRLSSAASGYISYLDFMGWYGQAPGKERELVAGITTGATTNYADSVKGRFTISRDNAKNIVYQQINSLKQEDTAVYYCARGTEVKSGISYRFYYWGQGTQVTVSS | low polyreactivity
15 | QVQLVESGGGLVQAGGSLRLSCAASGITFKSYTMGWYRQAPGKERELVAAITASGGTTRYADSVKGRFTISRDNAKNTVYLQMNSLKREDTAVYYCNALPFRYGKRRGYWGQGTQVTVSS | low polyreactivity
16 | QVQLVESGGGLVQAGGSLRLSCAASGRIFGIYAMGWYRQAPGKERELVATITDSDDSTYYADSVKGRFTISRDNAKNTVYLQMNSLKPEDTAVYYCATAFSYGGGAYDYWGQGTQVTVSS | low polyreactivity
17 | QVQLVESGGGLVQAGGSLSLICAASGSTFNLYPMGGYRKAPGKERELVAAISRGGSTNYADSVKGRFTISRDNAKNTVYLQMNSLIPEDTAVYYCAARSWYDRYPYYSWGQGTQLTVSS | high polyreactivity
18 | QVQLVESGGGLVQAGGSLRLSCAPSGSIFNRNVMGWYRQAPGKERELVAAITRGGRTSYADSVKGRFTISRDNAKNTVYLQMNSLKPEDTAVYYCAARRGYWVVYWGQGTQVTVSS | high polyreactivity
19 | QVQLVESGGGLVQAGGSLRLSCAASGSIFGRYGKGWYRQAPGKERELVAAITSGTRTNYADSVKGRFTISRDNAKITVYLQMNSLTPEDTAVYYSAKQSYRRLPNTPYNYWGQGTQVTVSS | low polyreactivity
20 | QVQLVESGGGLVQAGRSLRLSCPAYGFTFVINDMGWYRQAPGKEREFVADITSGGDTYYADSVKGRFTISRDNAKNTVYLQMNSLKPEDTAVFYCAADIYPDWIYLLYGYWGQGTQVTVSS | low polyreactivity
21 | QVQLVESGGGLVQAGGSLRLSCAASGSTFSGYAMGWYRQAPGKERELVATISGGGSTYYADSVKGRFTISRDNAKNTVYLQMNSLKPEDTAVFYCNAQGYGIFTSSLDYWGQGTQVTVSS | low polyreactivity
22 | QVQLVESGGGLVQAGGSLRLSCAASGSIFYRYVMGWYRQAPGKERELVAVITGSGGNTYYADSVKGRFTISRDNAKNTVYLQMNSLKPEDTAVYYCAARYYTSQYGRHSRYPSEYWGQGTQVTVSS | high polyreactivity

Row | Sequence | polyreactivity (PSR sort gate)
23 | QVQLVESGGGLVQAGGSLRLSCAASGSIFAYYTMGWSRQAPGKERELVAAITSGGSTNYADSVKGRFTISRDNAKNTVYLQMNSLKPEDTAVYYCAVQGSRYSYRYGYRFRTMDYWGQGTQVTVSS | high polyreactivity
24 | QVQLVESGGGLVQAGGSLRLSCAASGRIFDLNAMGWYRQAPGKERELVAVIDSYGSTYYADSVKGRFTISRDNAKNTVYLQMNSQKPEDSAVYYCTKYWYSRHVRYWAYYAEQRYDYWGQGTQVTVSS | low polyreactivity
25 | QVQLVESGGGLVQAGGSLRLSCAASGSTFNWDAMGWYRQAPGQERELVAAISKSGGTTYYADSVKGRFTISRDNAKNTVYLQMNSLKPEDTAVYYCAAVRRYHSYPDGGYWGQGTQVTVSS | high polyreactivity
26 | QVQLVESGGGLVQAGGSLRLTCAASGFTFHSYAMGWYRQSPGTERELVAAISARGGSTYYADSVKGRLTISRDNAKNTVYLQMNSLKPEDTAFYYCAAYSYQVRFYYWGQGTQVTVSS | high polyreactivity
27 | QVQLEESGGGLVQAGGSLRLSCAASGSTFGRNTLGSYRPAPGKERELVAVISRRGGITTYADSVKGRFTISRENAKNTVYLQMNSLKPVDTAVYYCNAVSRVYNKGQYGYWGQGTQVSVSS | high polyreactivity
28 | QVQLVESGGGLVQAGGSLRLSCAASGRTFRYYTMGWYRQAPGKEREFVAAISSTGGTYYADSVKGRFTISRDNAKNTVYLLMNSLNPEDTAVYYCAATFIQVVVNVQLYDYDYWGQGTQVTVSS | low polyreactivity
29 | QVQLVESGGGLVHAGGSLSLSCAAYYAMGWYRQAPGKERELVAAIDDCTSTNYADSVKGRFTISRDNAKNTVYLQMNSLKPEDTAVDYCNKLSEVTYYGSKFDYWGQGTQVTVSS | low polyreactivity
30 | KLQLVDSGGGLVQAGGSLRLSCAASGSTIRYYAMGWYRQAPGKERELVAAITISGGGTYADSVKGRFTISRDNAKNTVYLEMNSLKPEDTAVYYCAATYYGFLYRSIGDYWGQGTQVTVSS | low polyreactivity
31 | QVQLVESGGGLVQAGGSLRLSCAASGSTFGSYAMGWYRQAPGKERELVAAITASGGSTYYADSVKGRFTISRDNAKNTGYLQMNSLKPEDTAVYYCATRWFAFPWDEYNYWGQGTQVTVSS | low polyreactivity
32 | QVQLVESGGGLVQAGGSLRLSCAASGSIFDVNAMGWYRQAPGKEREMVAAISDSGGSTYYADSVKGRFTISRDNAKNTVYLQMNSLKPEDTAVYYCNAVWSWYNYYDFDYWGQGSQVTVSS | low polyreactivity
33 | QVQLVESGGGLVQAGGSLRLSCAASGFTFIAYAKGWYRQAPGKERELVAAISRRGGSTYYADSVKGRFTISRDNAKNTVYLQMNSLKPEDTAVYYCAKESRKKTDYDYWGQGTQVTVSS | high polyreactivity
34 | QVQLVESGGGLVQAGGSLRLSCAASGRIFVDNDMGWYRQAPGKERELVAAISGNGGNTNYADSVKGRFTISRDNAKNTVYFQMNSLKPEDTAVYYCAATYPVGHVYRYDYWGQGTQVTVSS | low polyreactivity
35 | QVQLVESGGGLVQAGGSLRLSCAASGSIFYAYAMGWYRQAPGKEREFVAVISRGGITNYADSVKGRFTISRDNAKNTVYLQMNSLKPEDTAVYYCAAATSAWGYLRRYGYWGQGTQVTVSS | low polyreactivity
36 | QVQLVESGGGLVQAGGSLRLSCAASARTLAHYTMGWYRQAPGKERELVAAITFSGGRTYYADSVKGRFTISRDTAKNTVYLQMNSLKPEDTAVYYCNADGYWVVPLDDSYEYWGQGTQVTVSS | low polyreactivity
37 | QVQLVESGGGLVQAGGSLRLSCAASGSTFSNYAMGWYRQAPGKERELVASISNGGSTNYADSVKGRFTISRDNAKNTVYLQMNSLKPEDTAVYYCNAESKAKYDYWGQGTQVTVSS | low polyreactivity
38 | QVQLVESGGGLVQAVGGLRLSCAASGSTFKRNTMGSYRQAPGKEMELVAAISRSGGSTYYADSVKGRFTISRDNAKNTVYLQMNSLKPEDTAVYYCNAYVSSYVGSRSYGLSPYDYWGQGTQVTVSS | high polyreactivity
39 | QVQLVESGGGLVQAGGSLRLICAASGNTFGYNAMVWYRQAPGKERELVASITLSGGSTYYADSVKGRFTISRDTAKNTVYLQMFCLKPEDTAVYYCNADTFQWWDIADVYVIVKYGYWGQGTQVTVSS | low polyreactivity
40 | QVQLVESGGGLVQAGGSLRLSCAASGITFENYAMGWYRQAPGKETELVASITRSGGNTYYADSVKGRFTISRDTAKNSVYLQMNSLKPEDTAVYDCAKDSGLNDDFIYWGQGTQVTVSS | low polyreactivity
41 | QVQLVESGGGLVQAGGRLRLSCAASGSIFERNVMGWYRQAPGKERELVAAITSGGSTNYADSVKGRFTISRDNAKNTVYLQMNSLKPEETAVYYCAADVPYRSRFYRYRLSGGDYWGQGSQVTVSS | low polyreactivity
42 | QVPLVESGGGLVQAGGSLRLSCAASGITIRGYAMGWYRQAPGKDRELVAAINTRTSTYYADSVKGRFTISRDNAKHTVYLQMNSLKPEDTAVYYCNRDPVYYDYDYWGQGTQVTVSS | low polyreactivity
43 | QVQLVESAGGLVQAGGSLRLSCAASGFTFKSNAMGWYRQAPGKEREMVAAIDSRGDRTYYADSVKGRFTISRDNAKNTVYLQMNSLKPEDTAVYYCATKWRTYWSSGEYWGQGTQVTVSS | high polyreactivity

— the nanobody polyreactivity screen of Harvey et al. (2022)
